Test results published in patent US20260166085A1 (BEAM THERAPEUTICS, published 2026).

Tests used:
[1] = biological target: CC200 variant of CD117 (S261G) purified protein (human, UniProt P10721 26-520, limits assumed); assay: binding kinetics grade, FIGS. 55A-55C
[2] = biological target: T1, CC128 variant of CD117 (Y259C + N260D) purified protein (human, UniProt P10721 26-520, limits assumed); assay: binding kinetics grade, FIGS. 55A-55C
T1 construct: also called CC128-edited CD117 as purified protein

[3] = biological target: T2, Wild type CD117 purified protein (human, UniProt P10721 26-520, limits assumed); assay: binding kinetics, FIGS. 45A-45K
T2 construct: Protein used in BLI/kinetics and cryo-EM; also called wt CD117; Wt CD117
T2 sequence (P10721 26-520 limits assumed): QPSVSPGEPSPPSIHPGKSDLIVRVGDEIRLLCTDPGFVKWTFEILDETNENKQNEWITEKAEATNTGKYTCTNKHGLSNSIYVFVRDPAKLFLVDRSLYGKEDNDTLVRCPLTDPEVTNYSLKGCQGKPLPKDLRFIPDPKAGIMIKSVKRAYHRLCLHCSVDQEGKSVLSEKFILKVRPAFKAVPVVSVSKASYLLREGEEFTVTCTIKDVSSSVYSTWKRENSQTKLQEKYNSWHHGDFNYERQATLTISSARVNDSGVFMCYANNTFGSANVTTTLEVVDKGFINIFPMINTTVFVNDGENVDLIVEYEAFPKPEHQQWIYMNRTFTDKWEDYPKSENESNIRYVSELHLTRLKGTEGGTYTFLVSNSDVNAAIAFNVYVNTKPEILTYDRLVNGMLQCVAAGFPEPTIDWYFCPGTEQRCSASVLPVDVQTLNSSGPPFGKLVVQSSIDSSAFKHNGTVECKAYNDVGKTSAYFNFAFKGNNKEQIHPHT

T1 sequence (P10721 26-520 Y259C/N260D limits assumed): as the sequence (P10721 26-520 limits assumed) above, with Y234C, N235D counted along it
CC200 variant of CD117 (S261G) purified protein, sequence (P10721 26-520 S261G limits assumed): as the sequence (P10721 26-520 limits assumed) above, with S236G counted along it

B1: ABTx251 (antibody, human IgG1, kappa, V domains shown)
VH: QVQLVQSGAAVKKPGESLKISCKGSGYRFTSYWIGWVRQMPGKGLEWMGIIYPGDSDTRYSPSFQGQVTISAGKSISTAYLQWSSLKASDTAMYYCARHGRGYDGYEGAFDIWGQGTMVTVSS
VL: AIQLTQSPSSLSASVGDRVTITCRASQGISSALAWYQQKPGKAPKLLIYDASSLESGVPSRFSGSGSGTDFTLTISSLQPEDFATYYCQQFYSYPLTFGGGTKVEIKR
[1]
  binding result: no binding
[2]
  binding result: no binding

B2: ABTx052 variant VL_F91T (antibody, human IgG1, V domains shown)
VH: QVQLVQSGAAVKKPGESLKISCKGSGYRFTSYWIGWVRQMPGKGLEWMGIIYPGDSDTRYSPSFQGQVTISAGKSISTAYLQWSSLKASDTAMYYCARHGRGYNGYEGAFDIWGQGTMVTVSS
VL: AIQLTQSPSSLSASVGDRVTITCRASQGISSALAWYQQKPGKAPKLLIYDASSLESGVPSRFSGSGSGTDFTLTISSLQPEDFATYYCQQTNSYPLTFGGGTKVEIK
[3]
  Kd: 0.191 nM
  koff: 0.000104 s⁻¹
  kon: 543000 M⁻¹ s⁻¹

B3: ABTx052 variant VH_G105A (antibody, human IgG1, V domains shown)
VH: QVQLVQSGAAVKKPGESLKISCKGSGYRFTSYWIGWVRQMPGKGLEWMGIIYPGDSDTRYSPSFQGQVTISAGKSISTAYLQWSSLKASDTAMYYCARHGRGYNAYEGAFDIWGQGTMVTVSS
VL: AIQLTQSPSSLSASVGDRVTITCRASQGISSALAWYQQKPGKAPKLLIYDASSLESGVPSRFSGSGSGTDFTLTISSLQPEDFATYYCQQFNSYPLTFGGGTKVEIKR
[3]
  Kd: 0.254 nM
  koff: 0.000153 s⁻¹
  kon: 601000 M⁻¹ s⁻¹

B4: ABTx052 variant VH_N104D (antibody, human IgG1, V domains shown)
VH: QVQLVQSGAAVKKPGESLKISCKGSGYRFTSYWIGWVRQMPGKGLEWMGIIYPGDSDTRYSPSFQGQVTISAGKSISTAYLQWSSLKASDTAMYYCARHGRGYDGYEGAFDIWGQGTMVTVSS
VL: AIQLTQSPSSLSASVGDRVTITCRASQGISSALAWYQQKPGKAPKLLIYDASSLESGVPSRFSGSGSGTDFTLTISSLQPEDFATYYCQQFNSYPLTFGGGTKVEIKR
[3]
  Kd: 0.495 nM
  koff: 0.000342 s⁻¹
  kon: 691000 M⁻¹ s⁻¹

B5: ABTx263 (antibody, human IgG1, kappa, V domains shown)
VH: QVQLVQSGAAVKKPGESLKISCKGSGYRFTSYWIGWVRQMPGKGLEWMGIIYPGDSDTKYSPSFQGQVTISAGKSISTAYLQWSSLKASDTAMYYCARHGRGYDGYDGAFDIWGQGTMVTVSS
VL: AIQLTQSPSSLSASVGDRVTITCRASQGISSALAWYQQKPGKAPKLLIYDASSLESGVPSRFSGSGSGTDFTLTISSLQPEDFATYYCQQVYSYPLTFGGGTKVEIKR
[1]
  binding result: no binding
[2]
  binding result: no binding

B6: ABTx258 (antibody, human IgG1, kappa, V domains shown)
VH: QVQLVQSGAAVKKPGESLKISCKGSGYRFTSYWIGWVRQMPGKGLEWMGIIYPGDSDTKYSPSFQGQVTISAGKSISTAYLQWSSLKASDTAMYYCARHGRGYDAYEGAFDIWGQGTMVTVSS
VL: AIQLTQSPSSLSASVGDRVTITCRASQGISSALAWYQQKPGKAPKLLIYDASSLESGVPSRFSGSGSGTDFTLTISSLQPEDFATYYCQQVRSYPLTFGGGTKVEIKR
[1]
  binding result: no binding
[2]
  binding result: no binding

B7: ABTx052 variant VL_S93G (antibody, human IgG1, V domains shown)
VH: QVQLVQSGAAVKKPGESLKISCKGSGYRFTSYWIGWVRQMPGKGLEWMGIIYPGDSDTRYSPSFQGQVTISAGKSISTAYLQWSSLKASDTAMYYCARHGRGYNGYEGAFDIWGQGTMVTVSS
VL: AIQLTQSPSSLSASVGDRVTITCRASQGISSALAWYQQKPGKAPKLLIYDASSLESGVPSRFSGSGSGTDFTLTISSLQPEDFATYYCQQFNGYPLTFGGGTKVEIK
[3]
  Kd: 0.0716 nM
  koff: 4.81e-05 s⁻¹
  kon: 671000 M⁻¹ s⁻¹

B8: ABTx262 (antibody, human IgG1, kappa, V domains shown)
VH: QVQLVQSGAAVKKPGESLKISCKGSGYRFTSYWIGWVRQMPGKGLEWMGIIYPGDSDTRYSPSFQGQVTISAGKSISTAYLQWSSLKASDTAMYYCARHGRGYDAYEGAFDIWGQGTMVTVSS
VL: AIQLTQSPSSLSASVGDRVTITCRASQGISSALAWYQQKPGKAPKLLIYDASSLESGVPSRFSGSGSGTDFTLTISSLQPEDFATYYCQQFRSSPLTFGGGTKVEIKR
[1]
  binding result: no binding
[2]
  binding result: no binding

B9: ABTx256 (antibody, human IgG1, kappa, V domains shown)
VH: QVQLVQSGAAVKKPGESLKISCKGSGYRFTSYWIGWVRQMPGKGLEWMGIIYPGDSDTRYSPSFQGQVTISAGKSISTAYLQWSSLKASDTAMYYCARHGRGYDAYEGAFDIWGQGTMVTVSS
VL: AIQLTQSPSSLSASVGDRVTITCRASQGISSALAWYQQKPGKAPKLLIYDASSLESGVPSRFSGSGSGTDFTLTISSLQPEDFATYYCQQTYSYPLTFGGGTKVEIKR
[1]
  binding result: no binding
[2]
  binding result: no binding

B10: ABTx268 (antibody, human IgG1, kappa, V domains shown)
VH: QVQLVQSGAAVKKPGESLKISCKGSGYRFTSYWIGWVRQMPGKGLEWMGIIYPGDSDTKYSPSFQGQVTISAGKSISTAYLQWSSLKASDTAMYYCARHGRGYDGYEGAFDIWGQGTMVTVSS
VL: AIQLTQSPSSLSASVGDRVTITCRASQGISSALAWYQQKPGKAPKLLIYDASSLESGVPSRFSGSGSGTDFTLTISSLQPEDFATYYCQQVNSYPLTFGGGTKVEIKR
[1]
  binding result: no binding
[2]
  binding result: no binding

B11: ABTx265 (antibody, human IgG1, kappa, V domains shown)
VH: QVQLVQSGAAVKKPGESLKISCKGSGYRFTSYWIGWVRQMPGKGLEWMGIIYPGDSDTKYSPSFQGQVTISAGKSISTAYLQWSSLKASDTAMYYCARHGRGYDGYDGAFDIWGQGTMVTVSS
VL: AIQLTQSPSSLSASVGDRVTITCRASQGISSALAWYQQKPGKAPKLLIYDASSLESGVPSRFSGSGSGTDFTLTISSLQPEDFATYYCQQTRSYPLTFGGGTKVEIKR
[1]
  binding result: no binding
[2]
  binding result: no binding

B12: ABTx261 (antibody, human IgG1, kappa, V domains shown)
VH: QVQLVQSGAAVKKPGESLKISCKGSGYRFTSYWIGWVRQMPGKGLEWMGIIYPGDSDTKYSPSFQGQVTISAGKSISTAYLQWSSLKASDTAMYYCARHGRGYDAYEGAFDIWGQGTMVTVSS
VL: AIQLTQSPSSLSASVGDRVTITCRASQGISSALAWYQQKPGKAPKLLIYDASSLESGVPSRFSGSGSGTDFTLTISSLQPEDFATYYCQQTRSYPLTFGGGTKVEIKR
[1]
  binding result: no binding
[2]
  binding result: no binding

B13: ABTx267 (antibody, human IgG1, kappa, V domains shown)
VH: QVQLVQSGAAVKKPGESLKISCKGSGYRFTSYWIGWVRQMPGKGLEWMGIIYPGDSDTKYSPSFQGQVTISAGKSISTAYLQWSSLKASDTAMYYCARHGRGYDAYDGAFDIWGQGTMVTVSS
VL: AIQLTQSPSSLSASVGDRVTITCRASQGISSALAWYQQKPGKAPKLLIYDASSLESGVPSRFSGSGSGTDFTLTISSLQPEDFATYYCQQTNSSPLTFGGGTKVEIKR
[1]
  binding result: no binding
[2]
  binding result: no binding

B14: ABTx269 (antibody, human IgG1, kappa, V domains shown)
VH: QVQLVQSGAAVKKPGESLKISCKGSGYRFTSYWIGWVRQMPGKGLEWMGIIYPGDSDTKYSPSFQGQVTISAGKSISTAYLQWSSLKASDTAMYYCARHGRGYDGYEGAFDIWGQGTMVTVSS
VL: AIQLTQSPSSLSASVGDRVTITCRASQGISSALAWYQQKPGKAPKLLIYDASSLESGVPSRFSGSGSGTDFTLTISSLQPEDFATYYCQQVYSYPLTFGGGTKVEIKR
[1]
  binding result: no binding
[2]
  binding result: no binding
